Results taken from the supplement of paper PMC9170038.

System: MS2 coat protein
Experiment: apparent KD of MS2 coat protein; designed switch direction (-1 OFF switch, 1 ON switch): 1; higher = weaker reporter binding
Outline: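 Designed RNA switches with common flanks were made on Illumina chips by stalled E. coli RNA polymerase. Titration with SNAP-549-labelled MS2 coat protein doubled from 0.7 or 1.5 nM up to 3 µM. Apparent KD is each design's median over clusters after curve-fitting normalised fluorescence.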

[1] = input ligand: microRNA oligo, concentration not stated
[2] = Eterna round: R95, input ligand: microRNA oligo, concentration not stated
[3] = Eterna round: R95, input ligand: FMN 200 uM
[4] = Eterna round: R95, input ligand: none

Sequence	apparent KD of MS2 coat protein (input ligand: FMN 200 uM) [nM]	apparent KD of MS2 coat protein [1] [nM]	apparent KD of MS2 coat protein (input ligand: none) [nM]	apparent KD of MS2 coat protein [2] [nM]	apparent KD of MS2 coat protein [3] [nM]	apparent KD of MS2 coat protein [4] [nM]
GCCAUCGAGUGAGGAUAUGGCACCGAAACGGUGCCAGAAGGCAUGUCAAUUGACAUGAGGAUCACCCAUGUAUUAUCGAUGGCA [Mat - Same State NG 1 - JL mod - D87] (Eterna round: R96, puzzle: Same State NG 1)	154	726	1690	–	–	–
GAUAAACAUGAGGAUCACCCAUGUGUGAAUAUGGGAGGAUAUACGUGGACCGUAGUCCGCGUAGAAGGCCUAAUUG [Mat - Same State 1 - Mod of JL - D20] (puzzle: Same State 1)	–	–	–	166	–	–
CGUAGGUAGCUGGAGGAUAUUCGAGUGGUAACAUGAGGAUCACCCAUGUGGAGAGAGGUACAUGAGGAGAAGGCUAGCUGCCUGC [JL-ss2-3.14 JL mod] (puzzle: Same State 2)	–	–	–	22	13.4	27.1
GUAGCAUACCGAGGAUAUUCAUACAUGAGGAUCACCCAUGUUAUUAUAGGCCGAUUACGGCCUUGGGAGAAGGCGGAAUGCUAC [Xeonanis - 20 Mod28] (Eterna round: R96, puzzle: Same State NG 2)	13.1	11.4	16.1	–	–	–
UAGAAACAUGAGGAUCACCCAUGUGGGUUAAACACAGGAUAUCACGCCAAAAGAAAAGCGUGAGAAGGGUGACCGA [Xeusisus] (Eterna round: R96, puzzle: Same State 1)	254	696	107	–	–	–
UGGAUCUAGGCUUGCCUGGGUCCAUGUUGACAUGAGGAUCACCCAUGUGUAUUUUUUUUGCUUUUUGUUUGUCAACA [JL A Humble Attempt mod 4] (puzzle: Sensor for hsa-mir-208a)	–	–	–	16.7	31.5	34
ACAAGCUUUUUGCUCGUCUUCAUGUAAUAACAUGAGGAUCACCCAUGUAACGUUAAAAGUCUCUCGAUAAUAGCUCA [Meechl hsa-mir-208a 1] (puzzle: Sensor for hsa-mir-208a)	–	–	–	33.6	132	348
GCUACCAAAGAAGCCAACAUGAGGAUCACCCAUGUAUGUUGGUAGGAUAUCGUUUGCAAAGCGAACGAGAAGGGCUAAGGUAGC [Mat - Same State NG 3 - JL Mod - D85] (Eterna round: R96, puzzle: Same State NG 3)	151	88.1	101	–	–	–
GCAGGACGAUAAUAUAUCUUCACAUGAGGAUCACCCAUGUCUCAGGAUAUGGAUCCUAAUUGGAUCCAGAAGGGAGCGUCCUGC [Fiskers NG3ss - 33] (Eterna round: R96, puzzle: Same State NG 3)	33.2	43.3	54.4	–	–	–
GUACAUAUUAUAGGAUAUCACGUCGAAUAGACGUGAGAAGGAUAAUCCCACAUGAAUAUUAAUACAUGAGGAUCACCCAUGUAC [SSNG1/18-A1] (Eterna round: R96, puzzle: Same State NG 1)	42	49.7	49.2	–	–	–
GUGGCCCAGGCACAGGAUAUGUUUCUCGUAACAUGAGGAUCACCCAUGUGCCUAUGAGAUAUAAUGCAGAAGGGUGCACGCCACG [Mat - Same State 2 - Mod of UCT - D80] (puzzle: Same State 2)	–	–	–	68.2	16.2	60.9
AAACACAUGAGGAUCACCCAUGUAGCGCCAUUAAAGCGCACAUAGGAUAUCCGGUCCUAAAGACCGGAGAAGGGUGAAAGAAAA [Zara] (Eterna round: R96, puzzle: Same State NG 3)	54.8	76.2	121	–	–	–
CAAGGGUACGGAUUAGUACAUGAGGAUCACCCAUGUAUCCGACAGGAUAUCAUGUAAGAAGCCAGUGAGAAGGGUCUAGUCCAA [Eternabot solution 43] (Eterna round: R96, puzzle: Same State NG 3)	367	205	460	–	–	–
GGAAUAUGAUGUUACAUGAGGAUCACCCAUGUAGUGACAACUAAGGAUAUCUGAAAGGAAGGAGAGGAGAAGGUAGGAUCAUAA [AK SSNG3-V2-14] (Eterna round: R96, puzzle: Same State NG 3)	20	24.6	33.3	–	–	–
AUAAAUAACACAGGAUAUCCGCACGGGUAGUGCGGAGAAGGGUGAACGUCGGCUCUCGCCAACAUGAGGAUCACCCAUGUAAAG [Letiusle] (Eterna round: R96, puzzle: Same State NG 1)	512	27.7	41.1	–	–	–
CCAAUGUACAAUUUAGAUCUACAUGAGGAUCACCCAUGUACAGAGGAUAUCAGCUCGAAUAGAGCUGAGAAGGCUGAAUUAAUU [SSNG3/3-A1] (Eterna round: R96, puzzle: Same State NG 3)	88.2	153	226	–	–	–

Sequence	apparent KD of MS2 coat protein (input ligand: FMN 200 uM) [nM]	apparent KD of MS2 coat protein [1] [nM]	apparent KD of MS2 coat protein (input ligand: none) [nM]	apparent KD of MS2 coat protein [2] [nM]	apparent KD of MS2 coat protein [3] [nM]	apparent KD of MS2 coat protein [4] [nM]
GCAGGACGAUAAUAUAUCUCACAUGAGGAUCACCCAUGUCGUGAGGAUAUGGAUCCUAAUUGGAUCCAGAAGGCAUGGUCCUGC [Fiskers NG3ss - 31] (Eterna round: R96, puzzle: Same State NG 3)	18.5	14.2	20.7	–	–	–
AUGCCAAAUGGAGGAUAUGGAGCCUUAUUGGCUCCAGAAGGUCAGACAUGAGGAUCACCCAUGUGGCAGUGGUCUAAUGACCAC [Eli NG1ss - 39] (Eterna round: R96, puzzle: Same State NG 1)	126	392	638	–	–	–
GUACAGAUCACAGGAUAUCACGUCGUUUAGACGUGAGAAGGGUGAUCACACAUGAAUAUUAAUACAUGAGGAUCACCCAUGUAC [SSNG1/16-A3] (Eterna round: R96, puzzle: Same State NG 1)	–	22.1	–	–	–	–
AACAAUCUAUCUGAGGAUAUCAUGAAAUAAACAUGAGGAUCACCCAUGUGCAGGAAAACUUCAUAUGAGAAGGCAGAUAGAUUGA [salish99_ss2_r3_045] (puzzle: Same State 2)	–	–	–	27.7	17.5	26.4
GAAUAAGUUUACGAGGAUAUGUUCCGCAUAACAUGAGGAUCACCCAUGUGAACAAGAAAGGCGACGCAGAAGGCGUGAGCAGAAG [Mat - Same State 2 - Mod of UCT - D100] (puzzle: Same State 2)	–	–	–	11.4	23	117
UAUAAACAUGAGGAUCACCCAUGUAAUAAUAUGGGAGGAUAUCAGAUUUAAUUUAAUUUAUGAGAAGGCCUAAUAU [Mat - Same State 1 - Mod of Eli - D66] (Eterna round: R96, puzzle: Same State 1)	–	427	–	–	–	–
GGUAGGUUACUACCAAACAUGAGGAUCACCCAUGUAAGUGGGAAGGAUAUGGUACCUUUUAGGUACCAGAAGGUCCAUAUAGUA [JL Fiskers NG3ss - 2 mod 10] (Eterna round: R96, puzzle: Same State NG 3)	254	783	1000	–	–	–
AACAAUCUAUCUCAGGAUAUCAUGUCAAAGACAUGAGGAUCACCCAUGUACCAGGAAACUGGUUAUGAGAAGGGAGAUAGAUUGG [Mat - Same State 2 - Mod - D28] (puzzle: Same State 2)	–	–	–	438	161	197
UUUCGAUAGAUAGGAUAUCACUUUACAUGAGGAUCACCCAUGUUGGCUGUGCUGAUUAUUAAAACUGAGAAGGAUCUUGAUGAC [JR_SSNG2_Sub003] (Eterna round: R96, puzzle: Same State NG 2)	25.2	22	23.5	–	–	–
AAUUGUUUCUGAGGAUAUCAGUAGUAUGCUUUUUGAGAAGGCAGUACAUGAGGAUCACCCAUGUUGUGGUUUGAUAGAAUGAUA [JR_SSNG1_Sub004] (Eterna round: R96, puzzle: Same State NG 1)	–	130	–	–	–	–
AAACGCAGCAUAUCGCUGCGACAUGAGGAUCACCCAUGUACACAGGAUAUCGCGGCAUACCGCCACGAGAAGGGUGAUCAAGAC [Vebixeriso] (Eterna round: R96, puzzle: Same State NG 3)	676	82.9	45.2	–	–	–
AACAAUCUAUCUGAGGAUAUCAUGAAAUAAACAUGAGGAUCACCCAUGUGCAGGAAAACUGCAUAUGAGAAGGUAGAUAGAUUGA [salish99_ss2_r3_050] (puzzle: Same State 2)	–	–	–	140	176	218
UUAACAUGAGGAUCACCCAUGUAUAGGGAGUUAGCAAUUUGACAGGAUAUUGAAGAUGUAGAUAGCAAGAAGGGUCGGUAGUCU [JR_SSNG3_Sub003] (Eterna round: R96, puzzle: Same State NG 3)	39.9	41.3	45.9	–	–	–
UACCGCGCAGAUGCGCAACAUGAGGAUCACCCAUGUGGCACACAGGAUAUCCUGAACAGCUAUUAGGAGAAGGGUGAAGGCCUC [Sotetelequ] (Eterna round: R96, puzzle: Same State NG 3)	128	75.3	78.3	–	–	–
CUUUUUAAUGCAGGAUAUGAUCAACAUGAGGAUCACCCAUGUGGUGUUGUGAGUAAGGAGAGUGAUCAGAAGGGCAUCUUUUCA [SS-NG2-LRO04] (Eterna round: R96, puzzle: Same State NG 2)	737	415	435	–	–	–
